# Data published in patent publication US20140378372A1 (SERPIN PHARMA, published 2014).
# Biological target: hERG (channel tested in the hERG FastPatch assay) (UniProt Q12809 1-1159)
# Experiment: cell-based or functional assay
# Sequence of hERG (channel tested in the hERG FastPatch assay) (Q12809 whole entry): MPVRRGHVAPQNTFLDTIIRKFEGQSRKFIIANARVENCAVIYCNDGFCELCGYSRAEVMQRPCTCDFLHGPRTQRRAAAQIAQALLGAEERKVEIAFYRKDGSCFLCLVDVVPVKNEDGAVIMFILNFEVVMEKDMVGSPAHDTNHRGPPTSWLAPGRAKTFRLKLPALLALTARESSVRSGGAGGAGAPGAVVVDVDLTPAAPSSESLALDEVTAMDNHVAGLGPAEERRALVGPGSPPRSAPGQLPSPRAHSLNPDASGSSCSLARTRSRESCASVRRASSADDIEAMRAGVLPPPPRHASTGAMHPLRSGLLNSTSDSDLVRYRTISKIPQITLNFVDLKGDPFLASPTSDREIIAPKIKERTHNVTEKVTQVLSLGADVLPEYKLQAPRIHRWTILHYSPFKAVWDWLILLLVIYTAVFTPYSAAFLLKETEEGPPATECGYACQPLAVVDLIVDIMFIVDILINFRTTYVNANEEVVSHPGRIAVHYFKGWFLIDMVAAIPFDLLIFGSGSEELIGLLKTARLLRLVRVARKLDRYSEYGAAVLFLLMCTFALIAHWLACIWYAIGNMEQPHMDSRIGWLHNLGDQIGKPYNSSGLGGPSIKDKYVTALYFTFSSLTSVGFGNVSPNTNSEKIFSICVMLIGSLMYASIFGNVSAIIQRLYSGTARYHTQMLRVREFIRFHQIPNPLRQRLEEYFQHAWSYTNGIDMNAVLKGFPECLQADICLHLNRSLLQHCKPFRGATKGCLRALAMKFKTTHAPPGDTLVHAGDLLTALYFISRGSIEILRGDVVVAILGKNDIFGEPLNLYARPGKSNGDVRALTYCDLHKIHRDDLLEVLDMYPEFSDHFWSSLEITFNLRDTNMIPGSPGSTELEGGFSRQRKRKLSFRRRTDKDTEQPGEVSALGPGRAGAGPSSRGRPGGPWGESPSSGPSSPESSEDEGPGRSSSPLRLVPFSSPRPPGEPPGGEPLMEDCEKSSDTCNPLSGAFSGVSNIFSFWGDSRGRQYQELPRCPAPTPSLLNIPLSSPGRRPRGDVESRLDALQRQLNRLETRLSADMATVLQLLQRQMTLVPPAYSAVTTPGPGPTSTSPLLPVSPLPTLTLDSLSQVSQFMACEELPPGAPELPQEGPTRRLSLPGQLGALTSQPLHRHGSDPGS
binder,measurement,value
"VKFNKPFVFLMIEQNTK [SP16 peptide (C36 Core sequence, long; derived from human alpha-1-antitrypsin)]","IC50 value (hERG FastPatch assay, test conc 0.008-25 uM)",> 25 µM
